Results published in article doi:10.1101/2022.09.25.509378.

What was measured:
[1] = biological target: bacteriophage λ terminase protomer (TerL•TerS2) (bacteriophage λ) (UniProt P03708); test: native MS
[2] = biological target: bacteriophage λ terminase protomer (TerL•TerS2) (bacteriophage λ) (UniProt P03708); test: cryo-EM 2D class averages
[3] = biological target: bacteriophage λ terminase protomer (TerL•TerS2) (bacteriophage λ) (UniProt P03708); test: SAXS
[4] = biological target: bacteriophage λ terminase protomer (TerL•TerS2) (bacteriophage λ) (UniProt P03708); test: AUC
[5] = biological target: bacteriophage λ terminase protomer (TerL•TerS2) (bacteriophage λ) (UniProt P03708); test: AUC; remark: listed apart in the source

Substance: bacteriophage λ terminase protomer (TerL•TerS2) (from UniProt P03708 1-641; P03707 1-181) (complex)
- stoichiometry N [1]: 5 protomers
- stoichiometry N [2]: 5
- stoichiometry N [3]: 4.4 protomers
- stoichiometry N [4]: 4.5 S
- stoichiometry N [5]: 3.3 to 4.4 protomers
